Patent publication US20260167699A1 (Chugai, published 2026)

B1: GpH7-A5/GpH7-B3 variant P271_10E/GpL16-k0 (antibody, human IgG1, kappa)
heavy 1: not shown
heavy 2: not shown
light: DIVMTQSPLSLPVTPGEPASISCQASESLVHSNRNTYLHWYLQKPGQSPQLLIYKVSNRFSGVPDRFSGSGSGTDFTLKISRVEAEDVGVYYCSQNTHVPPTFGQGTKVEIERTVAAPSVFIFPPSDEQLKSGTASVVCLLNNFYPREAKVQWKVDNALQSGNSQESVTEQDSKDSTYSLSSTLTLSKADYEKHKVYACEVTHQGLSSPVTKSFNRGEC
notes: copies: 1 + 1 + 2
B2: GpH7-A5/GpH7-B3 variant P271_03V/GpL16-k0 (antibody, human IgG1, kappa)
heavy 1: not shown
heavy 2: not shown
light: DIVMTQSPLSLPVTPGEPASISCQASESLVHSNRNTYLHWYLQKPGQSPQLLIYKVSNRFSGVPDRFSGSGSGTDFTLKISRVEAEDVGVYYCSQNTHVPPTFGQGTKVEIERTVAAPSVFIFPPSDEQLKSGTASVVCLLNNFYPREAKVQWKVDNALQSGNSQESVTEQDSKDSTYSLSSTLTLSKADYEKHKVYACEVTHQGLSSPVTKSFNRGEC
notes: copies: 1 + 1 + 2
B3: GpH7-A5/GpH7-B3 variant P271_14T/GpL16-k0 (antibody, human IgG1, kappa)
heavy 1: not shown
heavy 2: not shown
light: DIVMTQSPLSLPVTPGEPASISCQASESLVHSNRNTYLHWYLQKPGQSPQLLIYKVSNRFSGVPDRFSGSGSGTDFTLKISRVEAEDVGVYYCSQNTHVPPTFGQGTKVEIERTVAAPSVFIFPPSDEQLKSGTASVVCLLNNFYPREAKVQWKVDNALQSGNSQESVTEQDSKDSTYSLSSTLTLSKADYEKHKVYACEVTHQGLSSPVTKSFNRGEC
notes: copies: 1 + 1 + 2
B4: GpH7-A5/GpH7-B3 variant P238_09D/GpL16-k0 (antibody, human IgG1, kappa)
heavy 1: not shown
heavy 2: not shown
light: DIVMTQSPLSLPVTPGEPASISCQASESLVHSNRNTYLHWYLQKPGQSPQLLIYKVSNRFSGVPDRFSGSGSGTDFTLKISRVEAEDVGVYYCSQNTHVPPTFGQGTKVEIERTVAAPSVFIFPPSDEQLKSGTASVVCLLNNFYPREAKVQWKVDNALQSGNSQESVTEQDSKDSTYSLSSTLTLSKADYEKHKVYACEVTHQGLSSPVTKSFNRGEC
notes: copies: 1 + 1 + 2
B5: GpH7-A5/GpH7-B3 variant P271_12R/GpL16-k0 (antibody, human IgG1, kappa)
heavy 1: not shown
heavy 2: not shown
light: DIVMTQSPLSLPVTPGEPASISCQASESLVHSNRNTYLHWYLQKPGQSPQLLIYKVSNRFSGVPDRFSGSGSGTDFTLKISRVEAEDVGVYYCSQNTHVPPTFGQGTKVEIERTVAAPSVFIFPPSDEQLKSGTASVVCLLNNFYPREAKVQWKVDNALQSGNSQESVTEQDSKDSTYSLSSTLTLSKADYEKHKVYACEVTHQGLSSPVTKSFNRGEC
notes: copies: 1 + 1 + 2
B6: GpH7-A5/GpH7-B3 variant P238_10E/GpL16-k0 (antibody, human IgG1, kappa)
heavy 1: not shown
heavy 2: not shown
light: DIVMTQSPLSLPVTPGEPASISCQASESLVHSNRNTYLHWYLQKPGQSPQLLIYKVSNRFSGVPDRFSGSGSGTDFTLKISRVEAEDVGVYYCSQNTHVPPTFGQGTKVEIERTVAAPSVFIFPPSDEQLKSGTASVVCLLNNFYPREAKVQWKVDNALQSGNSQESVTEQDSKDSTYSLSSTLTLSKADYEKHKVYACEVTHQGLSSPVTKSFNRGEC
notes: copies: 1 + 1 + 2
B7: GpH7-A5/GpH7-B3 variant P271_09D/GpL16-k0 (antibody, human IgG1, kappa)
heavy 1: not shown
heavy 2: not shown
light: DIVMTQSPLSLPVTPGEPASISCQASESLVHSNRNTYLHWYLQKPGQSPQLLIYKVSNRFSGVPDRFSGSGSGTDFTLKISRVEAEDVGVYYCSQNTHVPPTFGQGTKVEIERTVAAPSVFIFPPSDEQLKSGTASVVCLLNNFYPREAKVQWKVDNALQSGNSQESVTEQDSKDSTYSLSSTLTLSKADYEKHKVYACEVTHQGLSSPVTKSFNRGEC
notes: copies: 1 + 1 + 2
B8: GpH7-A5/GpH7-B3 variant P238_15Y/GpL16-k0 (antibody, human IgG1, kappa)
heavy 1: not shown
heavy 2: not shown
light: DIVMTQSPLSLPVTPGEPASISCQASESLVHSNRNTYLHWYLQKPGQSPQLLIYKVSNRFSGVPDRFSGSGSGTDFTLKISRVEAEDVGVYYCSQNTHVPPTFGQGTKVEIERTVAAPSVFIFPPSDEQLKSGTASVVCLLNNFYPREAKVQWKVDNALQSGNSQESVTEQDSKDSTYSLSSTLTLSKADYEKHKVYACEVTHQGLSSPVTKSFNRGEC
notes: copies: 1 + 1 + 2
B9: GpH7-A5/GpH7-B3 variant P271_15Y/GpL16-k0 (antibody, human IgG1, kappa)
heavy 1: not shown
heavy 2: not shown
light: DIVMTQSPLSLPVTPGEPASISCQASESLVHSNRNTYLHWYLQKPGQSPQLLIYKVSNRFSGVPDRFSGSGSGTDFTLKISRVEAEDVGVYYCSQNTHVPPTFGQGTKVEIERTVAAPSVFIFPPSDEQLKSGTASVVCLLNNFYPREAKVQWKVDNALQSGNSQESVTEQDSKDSTYSLSSTLTLSKADYEKHKVYACEVTHQGLSSPVTKSFNRGEC
notes: copies: 1 + 1 + 2
B10: GpH7-A5/GpH7-B3 variant P271_02A/GpL16-k0 (antibody, human IgG1, kappa)
heavy 1: not shown
heavy 2: not shown
light: DIVMTQSPLSLPVTPGEPASISCQASESLVHSNRNTYLHWYLQKPGQSPQLLIYKVSNRFSGVPDRFSGSGSGTDFTLKISRVEAEDVGVYYCSQNTHVPPTFGQGTKVEIERTVAAPSVFIFPPSDEQLKSGTASVVCLLNNFYPREAKVQWKVDNALQSGNSQESVTEQDSKDSTYSLSSTLTLSKADYEKHKVYACEVTHQGLSSPVTKSFNRGEC
notes: copies: 1 + 1 + 2
B11: GpH7-A5/GpH7-B3 variant P271_01G/GpL16-k0 (antibody, human IgG1, kappa)
heavy 1: not shown
heavy 2: not shown
light: DIVMTQSPLSLPVTPGEPASISCQASESLVHSNRNTYLHWYLQKPGQSPQLLIYKVSNRFSGVPDRFSGSGSGTDFTLKISRVEAEDVGVYYCSQNTHVPPTFGQGTKVEIERTVAAPSVFIFPPSDEQLKSGTASVVCLLNNFYPREAKVQWKVDNALQSGNSQESVTEQDSKDSTYSLSSTLTLSKADYEKHKVYACEVTHQGLSSPVTKSFNRGEC
notes: copies: 1 + 1 + 2
B12: GpH7-A5/GpH7-B3 variant P271_11K/GpL16-k0 (antibody, human IgG1, kappa)
heavy 1: not shown
heavy 2: not shown
light: DIVMTQSPLSLPVTPGEPASISCQASESLVHSNRNTYLHWYLQKPGQSPQLLIYKVSNRFSGVPDRFSGSGSGTDFTLKISRVEAEDVGVYYCSQNTHVPPTFGQGTKVEIERTVAAPSVFIFPPSDEQLKSGTASVVCLLNNFYPREAKVQWKVDNALQSGNSQESVTEQDSKDSTYSLSSTLTLSKADYEKHKVYACEVTHQGLSSPVTKSFNRGEC
notes: copies: 1 + 1 + 2

Target: T1, FcγRIIIa (human, UniProt P08637 17-208)
T1 construct: extracellular domain; also called 3a; FcγRIIIa extracellular domain
T1 sequence (P08637 other isoform, or with tags, fused parts or gaps): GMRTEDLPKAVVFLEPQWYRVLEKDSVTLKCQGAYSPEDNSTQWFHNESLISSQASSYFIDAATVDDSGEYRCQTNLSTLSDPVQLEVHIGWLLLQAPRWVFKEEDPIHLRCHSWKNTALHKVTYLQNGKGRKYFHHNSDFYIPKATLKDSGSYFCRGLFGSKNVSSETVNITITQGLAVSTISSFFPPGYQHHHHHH
Assay: SPR (Biacore);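 note: antibody variants captured on an SPR sensor chip, with FcγRIIIa passed over as analyte in HBS-EP+ buffer at 25 °C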

In order of falling “He/Con 3a” value:
1. B11  119 % of GpH7-A5/GpH7-B3/GpL16-k0
2. B4  100 % of GpH7-A5/GpH7-B3/GpL16-k0
3. B6  98.9 % of GpH7-A5/GpH7-B3/GpL16-k0
4. B1  98.2 % of GpH7-A5/GpH7-B3/GpL16-k0
5. B7  97.7 % of GpH7-A5/GpH7-B3/GpL16-k0
6. B12  92.5 % of GpH7-A5/GpH7-B3/GpL16-k0
7. B5  87.6 % of GpH7-A5/GpH7-B3/GpL16-k0
8. B10  83.7 % of GpH7-A5/GpH7-B3/GpL16-k0
9. B2  73.5 % of GpH7-A5/GpH7-B3/GpL16-k0
10. B9  62.7 % of GpH7-A5/GpH7-B3/GpL16-k0
11. B8  61 % of GpH7-A5/GpH7-B3/GpL16-k0
12. B3  59.2 % of GpH7-A5/GpH7-B3/GpL16-k0
